Assay results as given in patent US20200270570A1.

Columns and labels:
mouse Fz8 (mouse) [1] = target: T1, mouse Fz8 (mouse) (UniProt Q61091); experiment: FIG. 12A: L-Wnt3A incubated with Fz8 for 12 h RT, ultracentrifugation, western blot
T1 sequence (looked up): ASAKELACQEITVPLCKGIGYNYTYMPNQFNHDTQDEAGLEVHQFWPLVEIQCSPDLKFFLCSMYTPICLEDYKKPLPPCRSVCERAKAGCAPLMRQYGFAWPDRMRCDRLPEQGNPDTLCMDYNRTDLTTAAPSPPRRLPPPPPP

mouse Fz8 (mouse) [2] = target: T1, mouse Fz8 (mouse); experiment: FIG. 11A: preformed L-Wnt3A incubated with Fz8 6 h RT, ultracentrifugation, western blot
mouse Fz8 (mouse) [3] = target: T1, mouse Fz8 (mouse); experiment: FIG. 12A: preformed L-Wnt3A incubated with Fz8 (longer time course), ultracentrifugation, immunoblot
[4] = target: L-Wnt3A (Wnt3A reconstituted into liposomes) (human) (UniProt P56704); experiment: FIG. 11A: preformed L-Wnt3A incubated with Fz8 6 h RT, ultracentrifugation, immunoblot
[5] = target: L-Wnt3A (Wnt3A reconstituted into liposomes) (human) (UniProt P56704); experiment: FIG. 12A: preformed L-Wnt3A incubated with Fz8 (longer time course), ultracentrifugation, immunoblot

UniProt P56704, sequence (P56704 19-352 limits assumed): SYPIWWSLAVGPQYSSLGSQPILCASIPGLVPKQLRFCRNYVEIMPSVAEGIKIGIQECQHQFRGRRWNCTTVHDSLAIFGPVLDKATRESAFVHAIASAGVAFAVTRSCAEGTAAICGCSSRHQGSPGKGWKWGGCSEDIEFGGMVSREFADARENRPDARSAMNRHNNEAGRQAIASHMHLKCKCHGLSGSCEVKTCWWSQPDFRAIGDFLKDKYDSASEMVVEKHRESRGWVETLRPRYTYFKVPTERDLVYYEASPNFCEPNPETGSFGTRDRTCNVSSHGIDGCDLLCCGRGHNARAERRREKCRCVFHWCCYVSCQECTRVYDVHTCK

“L-Wnt3A (Wnt3A reconstituted into liposomes) (from UniProt P56704 19-352)” was tested, and the percent of Wnt3A in Fz8 rich supernatant (mouse Fz8 (mouse) [1]) was 11%, the percent of Wnt3A in liposomal pellet (not with Fz8) (mouse Fz8 (mouse) [2]) was 100% and the percent of Wnt3A in liposomal pellet (not with Fz8) (mouse Fz8 (mouse) [3]) was 88.7%.

Substance “mouse Fz8 (from UniProt Q61091 28-173) (receptor)” has a percent of Fz8 in supernatant (not liposome-associated) [4] of 98.6% and a percent of Fz8 in supernatant (not liposome-associated) [5] of 94.5%.
